Data set [1] deals with T1, Telomere Repeat-binding Factor 2 (TRF2), full-length human (human, UniProt Q15554 1-542, Alexa Fluor 594 or Alexa Fluor 488 label where used labeled (site not stated); unlabeled where used as competitor and in MST).
T1 construct: TRF2, human, full-length; Removal of the His tag is not mentioned
T1 sequence (looked up): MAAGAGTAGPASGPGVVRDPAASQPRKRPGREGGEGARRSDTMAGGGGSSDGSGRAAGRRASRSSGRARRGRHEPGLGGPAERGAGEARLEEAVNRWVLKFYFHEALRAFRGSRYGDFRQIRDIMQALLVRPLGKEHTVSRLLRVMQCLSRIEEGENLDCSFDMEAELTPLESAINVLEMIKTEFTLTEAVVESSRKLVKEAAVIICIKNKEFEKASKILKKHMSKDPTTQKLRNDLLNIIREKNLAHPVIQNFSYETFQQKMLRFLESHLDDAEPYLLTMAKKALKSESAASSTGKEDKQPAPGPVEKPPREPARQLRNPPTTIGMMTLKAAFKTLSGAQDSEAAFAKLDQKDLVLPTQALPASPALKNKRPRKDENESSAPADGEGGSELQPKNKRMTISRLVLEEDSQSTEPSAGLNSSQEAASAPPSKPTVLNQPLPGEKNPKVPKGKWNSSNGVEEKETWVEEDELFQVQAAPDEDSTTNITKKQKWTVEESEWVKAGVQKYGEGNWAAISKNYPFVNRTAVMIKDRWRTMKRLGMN
Description: MST; Alexa Fluor 488 labeled TIN2 incubated with different concentrations of TRF1 or TRF2; 50 mM sodium phosphate pH 7.0, 50 mM NaCl; 12 °C; apparent KD. The note with it: both partners purified.

For data set [2], the target named is T2, Telomere Repeat-binding Factor 1 (TRF1), full-length human (human, UniProt P54274 1-439, Alexa Fluor 594 or Alexa Fluor 488 label where used labeled (site not stated); unlabeled where used as competitor and in MST).
T2 construct: TRF1, human, full-length; Removal of the His tag is not mentioned
T2 sequence (looked up): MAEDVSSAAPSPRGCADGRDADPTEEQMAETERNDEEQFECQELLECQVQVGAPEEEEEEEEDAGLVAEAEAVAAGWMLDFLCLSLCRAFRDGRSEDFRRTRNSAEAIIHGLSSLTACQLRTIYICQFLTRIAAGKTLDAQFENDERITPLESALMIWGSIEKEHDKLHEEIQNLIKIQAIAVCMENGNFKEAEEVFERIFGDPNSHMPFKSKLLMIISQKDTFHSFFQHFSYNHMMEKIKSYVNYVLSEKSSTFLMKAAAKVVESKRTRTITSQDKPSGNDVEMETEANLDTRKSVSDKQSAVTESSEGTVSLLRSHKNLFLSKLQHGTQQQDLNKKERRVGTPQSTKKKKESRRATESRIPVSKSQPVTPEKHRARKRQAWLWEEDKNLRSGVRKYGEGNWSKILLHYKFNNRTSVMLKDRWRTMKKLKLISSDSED
The description is as above. The conditions noted are these: both partners purified.

In another data set the target is TRF1;TIN2 (human;human, UniProt P54274;Q9BSI4 1-439;1-451, |). Description: fluorescence anisotropy; TRF1 5 uM:TIN2 2.5 uM (2:1) stock titrated into 7.5 nM DNA; KD only in figure; 50 mM sodium phosphate pH 7.0, 50 mM NaCl, 25 C; 7.5 nM Alexa Fluor 488-labeled DNA; 2 min incubation per titration step. The note with it: protein: recombinant;recombinant; chain copies: 2;1; (described only as annealed with its complementary strand). (In general: In fluorescence polarisation assays a small probe gives low polarisation when free and higher when bound to something large.)

B1: TRF1-Interacting Nuclear factor 2 (TIN2), full-length human (natural protein)
chain: ATPLVAGPAALRFAAAASWQVVRGRCVEHFPRVLEFLRSLRAVAPGLVRYRHHERLCMGLKAKVVVELILQGRPWAQVLKALNHHFPESGPIVRDPKATKQDLRKILEAQETFYQQVKQLSEAPVDLASKLQELEQEYGEPFLAAMEKLLFEYLCQLEKALPTPQAQQLQDVLSWMQPGVSITSSLAWRQYGVDMGWLLPECSVTDSVNLAEPMEQNPPQQQRLALHNPLPKAKPGTHLPQGPSSRTHPEPLAGRHFNLAPLGRRRVQSQWASTRGGHKERPTVMLFPFRNLGSPTQVISKPESKEEHAIYTADLAMGTRAASTGKSKSPCQTLGGRALKENPVDLPATEQKENCLDCYMDPLRLSLLPPRARKPVCPPSLCSSVITIGDLVLDSDEEENGQGEGKESLENYQKTKFDTLIPTLCEYLPPSGHGAIPVSSCDCRDSSRPL
modifications: Alexa Fluor 488 label where used labeled (site not stated); unlabeled in the TRF1/TRF2 cross-correlation experiment and in SEC
On to B1, for which the Kd in data set [1] came to 360 nM; in data set [2], 240 nM.

B2: R5 telomeric duplex (five repeats) (dsDNA)
DNA 1: GTTAGGGTTAGGGTTAGGGTTAGGGTTAGGGTTAG
DNA 2: CTAACCCTAACCCTAACCCTAACCCTAACCCTAAC
As for B2, the binding result with TRF1;TIN2 is “binds”.

These data come from article doi:10.1101/436014, “Human telomere repeat binding factor TRF1 replaces TRF2 bound to shelterin core hub TIN2 when TPP1 is absent” (bioRxiv, 2018).
